Test results as given in publication PMC9482650, “Quantitative fragmentomics allow affinity mapping of interactomes” (Nature Communications, 2022).

T1: SNTA1, Q13424
T1 sequence (Q13424 82-180, limits assumed, looked up): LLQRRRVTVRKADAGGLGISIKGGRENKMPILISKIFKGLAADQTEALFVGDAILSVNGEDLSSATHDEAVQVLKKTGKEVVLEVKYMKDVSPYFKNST

T2: MPDZ_12, O75970
T2 sequence (O75970 1857-1958, limits assumed, looked up): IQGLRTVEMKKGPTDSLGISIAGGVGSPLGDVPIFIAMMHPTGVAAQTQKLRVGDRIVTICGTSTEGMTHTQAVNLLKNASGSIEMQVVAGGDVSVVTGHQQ

T3: ARHGEF11, O15085
T3 sequence (O15085 42-136, limits assumed, looked up): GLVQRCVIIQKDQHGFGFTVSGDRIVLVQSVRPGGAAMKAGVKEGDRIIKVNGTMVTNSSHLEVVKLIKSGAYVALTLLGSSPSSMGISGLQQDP

T4: GRIP1_4, Q9Y3R0
T4 sequence (Q9Y3R0 467-571, limits assumed, looked up): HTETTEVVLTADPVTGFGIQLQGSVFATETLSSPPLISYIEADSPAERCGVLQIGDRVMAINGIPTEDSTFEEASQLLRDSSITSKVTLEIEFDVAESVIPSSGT

T5: APBA2_1, Q99767
T5 sequence (Q99767 563-664, limits assumed, looked up): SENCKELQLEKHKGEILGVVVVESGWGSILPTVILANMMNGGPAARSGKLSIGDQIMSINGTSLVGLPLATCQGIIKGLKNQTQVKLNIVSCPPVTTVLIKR

T6: PTPN13_1, Q12923
T6 sequence (Q12923 1088-1188, limits assumed, looked up): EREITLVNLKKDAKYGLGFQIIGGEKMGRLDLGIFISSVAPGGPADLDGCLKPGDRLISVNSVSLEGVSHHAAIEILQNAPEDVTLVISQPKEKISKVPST

T7: SIPA1L2, Q9P2F8
T7 sequence (Q9P2F8 945-1036, limits assumed, looked up): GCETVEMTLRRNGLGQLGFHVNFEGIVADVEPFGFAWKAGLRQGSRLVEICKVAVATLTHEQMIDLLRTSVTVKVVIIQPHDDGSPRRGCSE

T8: GRIP1_3, Q9Y3R0
T8 sequence (Q9Y3R0 247-346, limits assumed, looked up): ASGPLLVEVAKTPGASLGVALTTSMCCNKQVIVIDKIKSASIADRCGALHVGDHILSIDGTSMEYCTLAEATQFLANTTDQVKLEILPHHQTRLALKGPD

T9: PDZD7_3, Q9H5P4
T9 sequence (Q9H5P4 857-944, limits assumed, looked up): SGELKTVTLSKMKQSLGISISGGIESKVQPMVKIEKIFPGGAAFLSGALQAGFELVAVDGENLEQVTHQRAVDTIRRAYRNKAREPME

T10: LNX2_2, Q8N448
T10 sequence (Q8N448 334-432, limits assumed, looked up): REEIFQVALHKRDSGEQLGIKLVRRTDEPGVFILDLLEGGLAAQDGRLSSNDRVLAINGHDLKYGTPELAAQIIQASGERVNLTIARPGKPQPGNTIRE

T11: GRIP1_2, Q9Y3R0
T11 sequence (Q9Y3R0 145-248, limits assumed, looked up): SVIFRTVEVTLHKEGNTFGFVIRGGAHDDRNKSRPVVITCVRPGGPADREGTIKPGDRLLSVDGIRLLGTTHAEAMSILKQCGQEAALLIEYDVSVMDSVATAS


How the values were obtained:
Assay in all cases: holdup assay
Set-up in all cases: key: below the threshold = too weak to quantify, mostly under pKd 3.1 to 4
Conditions in all cases: plain residues with an end cap or a label only (N-terminal biotin on a linker: ado-ado)
SNTA1, Q13424 = biological target: T1, SNTA1, Q13424
MAST2, Q6P0Q8 = biological target: MAST2, Q6P0Q8
Chain of MAST2, Q6P0Q8 (Q6P0Q8 1099-1202): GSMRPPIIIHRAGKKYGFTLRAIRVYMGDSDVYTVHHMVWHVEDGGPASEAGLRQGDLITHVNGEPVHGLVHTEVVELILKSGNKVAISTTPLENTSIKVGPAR

MPDZ_12, O75970 = biological target: T2, MPDZ_12, O75970
ARHGEF11, O15085 = biological target: T3, ARHGEF11, O15085
DLG2_3, Q15700 = biological target: DLG2_3, Q15700
PICK1, Q9NRD5 = biological target: PICK1, Q9NRD5
Chain of PICK1, Q9NRD5 (Q9NRD5 17-115): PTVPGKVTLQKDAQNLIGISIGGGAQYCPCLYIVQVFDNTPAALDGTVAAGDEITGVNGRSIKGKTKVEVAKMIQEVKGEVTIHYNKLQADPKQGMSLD

Inadl_4, Q8NI35 = biological target: Inadl_4, Q8NI35
Chain of Inadl_4, Q8NI35 (Q8NI35 547-651): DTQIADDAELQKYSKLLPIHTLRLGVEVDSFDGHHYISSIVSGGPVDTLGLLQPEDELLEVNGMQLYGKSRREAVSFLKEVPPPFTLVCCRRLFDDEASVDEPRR

GRIP1_4, Q9Y3R0 = biological target: T4, GRIP1_4, Q9Y3R0
LDB3, O75112 = biological target: LDB3, O75112
Chain of LDB3, O75112 (O75112 1-94): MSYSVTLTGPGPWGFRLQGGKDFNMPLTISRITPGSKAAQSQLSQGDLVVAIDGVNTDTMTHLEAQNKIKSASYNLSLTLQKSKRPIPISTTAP

GRIP2_7, Q9C0E4 = biological target: GRIP2_7, Q9C0E4
Chain of GRIP2_7, Q9C0E4 (Q9C0E4 934-1023): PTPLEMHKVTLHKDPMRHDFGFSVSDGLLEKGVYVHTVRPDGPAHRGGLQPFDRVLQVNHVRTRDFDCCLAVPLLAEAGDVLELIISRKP

DLG2_2, Q15700 = biological target: DLG2_2, Q15700
APBA2_1, Q99767 = biological target: T5, APBA2_1, Q99767
HTRA2, O43464 = biological target: HTRA2, O43464
Chain of HTRA2, O43464 (O43464 355-458): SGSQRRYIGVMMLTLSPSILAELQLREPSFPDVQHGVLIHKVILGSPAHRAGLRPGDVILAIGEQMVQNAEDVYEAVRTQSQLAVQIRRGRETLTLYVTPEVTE

SCRIB_1, Q14160 = biological target: SCRIB_1, Q14160
Chain of SCRIB_1, Q14160 (Q14160 718-814): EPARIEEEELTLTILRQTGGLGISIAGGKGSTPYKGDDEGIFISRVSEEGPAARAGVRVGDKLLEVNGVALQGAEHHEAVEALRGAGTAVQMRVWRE

Inadl_1, Q8NI35 = biological target: Inadl_1, Q8NI35
Chain of Inadl_1, Q8NI35 (Q8NI35 113-229): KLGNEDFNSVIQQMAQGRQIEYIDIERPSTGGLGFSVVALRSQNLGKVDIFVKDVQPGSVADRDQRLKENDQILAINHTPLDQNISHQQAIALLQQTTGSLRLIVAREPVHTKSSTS

Inadl_3, Q8NI35 = biological target: Inadl_3, Q8NI35
Chain of Inadl_3, Q8NI35 (Q8NI35 359-469): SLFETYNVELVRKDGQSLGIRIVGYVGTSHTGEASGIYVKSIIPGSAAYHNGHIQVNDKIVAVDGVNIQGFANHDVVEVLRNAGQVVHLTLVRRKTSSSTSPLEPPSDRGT

PTPN13_1, Q12923 = biological target: T6, PTPN13_1, Q12923
GIPC2, Q8TF65 = biological target: GIPC2, Q8TF65
Chain of GIPC2, Q8TF65 (Q8TF65 112-203): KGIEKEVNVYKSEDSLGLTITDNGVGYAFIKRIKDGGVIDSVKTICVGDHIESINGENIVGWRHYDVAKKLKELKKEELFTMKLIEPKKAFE

SIPA1L2, Q9P2F8 = biological target: T7, SIPA1L2, Q9P2F8
PDLIM1, O00151 = biological target: PDLIM1, O00151
Chain of PDLIM1, O00151 (O00151 1-87): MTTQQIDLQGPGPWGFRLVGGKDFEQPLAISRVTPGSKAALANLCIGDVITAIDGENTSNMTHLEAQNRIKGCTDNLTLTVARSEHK

GRIP1_3, Q9Y3R0 = biological target: T8, GRIP1_3, Q9Y3R0
LNX1_2, Q8TBB1 = biological target: LNX1_2, Q8TBB1
Chain of LNX1_2, Q8TBB1 (Q8TBB1 371-470): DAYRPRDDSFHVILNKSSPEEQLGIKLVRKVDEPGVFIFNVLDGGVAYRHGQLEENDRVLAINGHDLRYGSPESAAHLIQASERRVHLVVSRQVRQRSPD

ARHGEF12, Q9NZN5-2 = biological target: ARHGEF12, Q9NZN5-2
Chain of ARHGEF12, Q9NZN5-2 (Q9NZN5 other isoform, or with tags, fused parts or gaps): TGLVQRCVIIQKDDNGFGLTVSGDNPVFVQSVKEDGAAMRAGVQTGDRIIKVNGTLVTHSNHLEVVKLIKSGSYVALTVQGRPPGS

GOPC, Q9HD26 = biological target: GOPC, Q9HD26
PDZD7_3, Q9H5P4 = biological target: T9, PDZD7_3, Q9H5P4
LNX2_2, Q8N448 = biological target: T10, LNX2_2, Q8N448
GRIP1_2, Q9Y3R0 = biological target: T11, GRIP1_2, Q9Y3R0

Row | Binder | pKd (SNTA1, Q13424) | pKd (MAST2, Q6P0Q8) | pKd (MPDZ_12, O75970) | pKd (ARHGEF11, O15085) | pKd (DLG2_3, Q15700) | pKd (PICK1, Q9NRD5) | pKd (Inadl_4, Q8NI35) | pKd (GRIP1_4, Q9Y3R0) | pKd (LDB3, O75112) | pKd (GRIP2_7, Q9C0E4) | pKd (DLG2_2, Q15700) | pKd (APBA2_1, Q99767) | pKd (HTRA2, O43464) | pKd (SCRIB_1, Q14160) | pKd (Inadl_1, Q8NI35) | pKd (Inadl_3, Q8NI35) | pKd (PTPN13_1, Q12923) | pKd (GIPC2, Q8TF65) | pKd (SIPA1L2, Q9P2F8) | pKd (PDLIM1, O00151) | also measured
1 | NIAESLESLV [PTPRZ1, P23471] | 4.51 | 4.79 | below the threshold | 3.67 | below the threshold | below the threshold | below the threshold | below the threshold | below the threshold | below the threshold | 4.72 | below the threshold | below the threshold | 3.87 | below the threshold | 4.13 | below the threshold | below the threshold | below the threshold | below the threshold | pKd (GRIP1_3, Q9Y3R0): below the threshold; pKd (LNX1_2, Q8TBB1): below the threshold; pKd (ARHGEF12, Q9NZN5-2): below the threshold; pKd (GOPC, Q9HD26): below the threshold; pKd (PDZD7_3, Q9H5P4): 4.7; pKd (LNX2_2, Q8N448): 4.05; pKd (GRIP1_2, Q9Y3R0): below the threshold
2 | MQHQRTHTRV [ZSCAN30, Q86W11] | 4.23 | 5.21 | below the threshold | 4.3 | 4.67 | below the threshold | below the threshold | below the threshold | below the threshold | below the threshold | 4.76 | below the threshold | below the threshold | 3.68 | below the threshold | below the threshold | below the threshold | 3.48 | below the threshold | below the threshold | pKd (GRIP1_3, Q9Y3R0): below the threshold; pKd (LNX1_2, Q8TBB1): 3.58; pKd (ARHGEF12, Q9NZN5-2): 3.96; pKd (GOPC, Q9HD26): 4.41; pKd (PDZD7_3, Q9H5P4): 4.37; pKd (LNX2_2, Q8N448): 4.47; pKd (GRIP1_2, Q9Y3R0): below the threshold
3 | EDGESWEYQI [TRPV6, Q9H1D0] | below the threshold | 4.78 | below the threshold | 3.63 | 3.48 | below the threshold | below the threshold | below the threshold | below the threshold | 3.61 | below the threshold | below the threshold | below the threshold | below the threshold | 4.41 | 5.33 | below the threshold | below the threshold | below the threshold | below the threshold | pKd (GRIP1_3, Q9Y3R0): below the threshold; pKd (LNX1_2, Q8TBB1): below the threshold; pKd (ARHGEF12, Q9NZN5-2): below the threshold; pKd (GOPC, Q9HD26): below the threshold; pKd (PDZD7_3, Q9H5P4): below the threshold; pKd (LNX2_2, Q8N448): below the threshold; pKd (GRIP1_2, Q9Y3R0): below the threshold
4 | RQKEVRESKC [SCN8A, Q9UQD0] | 4.65 | 4.82 | below the threshold | below the threshold | 4.07 | 4.18 | below the threshold | below the threshold | below the threshold | below the threshold | below the threshold | below the threshold | below the threshold | 4.53 | below the threshold | below the threshold | below the threshold | 4.05 | below the threshold | below the threshold | pKd (GRIP1_3, Q9Y3R0): below the threshold; pKd (LNX1_2, Q8TBB1): below the threshold; pKd (ARHGEF12, Q9NZN5-2): 3.64; pKd (GOPC, Q9HD26): below the threshold; pKd (PDZD7_3, Q9H5P4): 3.85; pKd (LNX2_2, Q8N448): below the threshold; pKd (GRIP1_2, Q9Y3R0): below the threshold
